# Laboratory results as given in patent US20240417436A1 (BRIGHT PEAK THERAPEUTICS, published 2024).
# *1 amine or outer side, *2 acyl side, *3 side chain or, on linkers, in order; H or OH if unused. Bridges are numbered along the chain shown (N, C = ends). Primed or numbered codes have the meaning given here. Side-chain parts run from the residue outwards. [ ]: non-standard residue; d: D form. Ygp″ = O-(PEG8-amino)-tyrosine (O-(8x polyethylene glycol-amino)-tyrosine); Yn3″ = O-(PEG9-azido)-tyrosine (O-(9x polyethylene glycol-azido)-tyrosine); Ygp = O-(8x polyethylene glycol-amino)-tyrosine; Yn3 = O-(9x polyethylene glycol-azido)-tyrosine; PABC = O=C(OCc1ccc(N[*:1])cc1)[*:2]; Ygp(3) = O-(PEG8-amino)-tyrosine; Yn3(3) = O-(PEG9-azido)-tyrosine; Cit = NC(=O)NCCC[C@H](N)C(=O)O; hSer = N[C@@H](CCO)C(=O)O; Nle = CCCC[C@H](N)C(=O)O; Dab = NCC[C@H](N)C(=O)O
# T1: recombinant human IL-2 receptor beta containing a His-tag and Avi-Tag (R&D Systems #AVI10459) (human, UniProt P14784 27-239)
# T1 construct: bought protein, held on the Octet SAX2 sensor; also called CD122; IL-2Rβ
# T1 sequence (looked up): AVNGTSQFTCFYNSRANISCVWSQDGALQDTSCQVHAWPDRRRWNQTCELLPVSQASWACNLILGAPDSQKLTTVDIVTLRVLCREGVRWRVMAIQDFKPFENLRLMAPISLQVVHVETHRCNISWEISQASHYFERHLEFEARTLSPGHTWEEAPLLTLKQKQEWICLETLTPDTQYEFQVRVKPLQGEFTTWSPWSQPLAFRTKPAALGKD
# T2: Avi-Tag Fc with human IL-2R beta and IL-2R gamma attached (Acrobiosystems ACRB-ILG-H82F3-25UG) (human, UniProt P14784 27-239; P31785 23-262)
# T2 construct: bought heterodimer; also called CD122 CD132; CD122/CD132 complex
# T2 sequence (looked up) 1: T1 sequence (looked up)
# T2 sequence (looked up) 2: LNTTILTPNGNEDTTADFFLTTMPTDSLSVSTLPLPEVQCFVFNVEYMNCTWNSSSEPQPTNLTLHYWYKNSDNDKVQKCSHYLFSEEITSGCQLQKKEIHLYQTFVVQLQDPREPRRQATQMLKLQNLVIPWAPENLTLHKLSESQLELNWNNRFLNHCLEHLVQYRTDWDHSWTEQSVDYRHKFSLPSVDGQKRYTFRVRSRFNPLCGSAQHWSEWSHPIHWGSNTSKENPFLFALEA
# T3: IL-2 receptor βγ complex on pan T cells (human, UniProt P14784 27-551; P31785 23-369)
# T3 sequence (looked up) 1: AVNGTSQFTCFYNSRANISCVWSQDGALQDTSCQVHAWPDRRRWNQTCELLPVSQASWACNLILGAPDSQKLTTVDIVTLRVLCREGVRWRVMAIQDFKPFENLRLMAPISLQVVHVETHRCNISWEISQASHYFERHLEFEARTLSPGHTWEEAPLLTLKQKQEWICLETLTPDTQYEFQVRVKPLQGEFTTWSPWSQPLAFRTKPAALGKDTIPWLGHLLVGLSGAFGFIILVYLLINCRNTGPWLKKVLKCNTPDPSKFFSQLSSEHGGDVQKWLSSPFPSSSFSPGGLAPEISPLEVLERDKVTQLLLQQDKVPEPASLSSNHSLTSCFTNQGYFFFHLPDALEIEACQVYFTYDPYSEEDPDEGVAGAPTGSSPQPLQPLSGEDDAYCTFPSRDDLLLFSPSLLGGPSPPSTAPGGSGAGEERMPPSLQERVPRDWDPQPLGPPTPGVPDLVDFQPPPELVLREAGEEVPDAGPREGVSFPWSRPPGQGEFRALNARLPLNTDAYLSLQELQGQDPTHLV
# T3 sequence (looked up) 2: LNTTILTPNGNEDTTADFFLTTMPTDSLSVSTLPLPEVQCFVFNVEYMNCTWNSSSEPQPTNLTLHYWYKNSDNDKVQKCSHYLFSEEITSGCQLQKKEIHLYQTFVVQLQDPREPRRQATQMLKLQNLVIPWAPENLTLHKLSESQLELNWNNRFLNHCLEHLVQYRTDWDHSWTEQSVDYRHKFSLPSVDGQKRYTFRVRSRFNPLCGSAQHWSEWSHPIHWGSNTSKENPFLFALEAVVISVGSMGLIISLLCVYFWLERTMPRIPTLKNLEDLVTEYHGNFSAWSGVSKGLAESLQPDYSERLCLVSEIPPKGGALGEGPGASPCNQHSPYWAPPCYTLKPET
# B1: CMP-166, MMP2 cleaved (ligand)
# chain: APTSSSTKKTQLQLEHLLLDLQKILNGINNYKNPKLTRXLXYKFYXPKKATELKHLQCLEEELKPLEEVLXLAQSKNFHLRPRDLISNINVIVLELKGSETTFXCEYADETATIVEFLNRWITFSQSIISTLT
# modifications: not fully specified; as CMP-166 but cleavable peptide cut by MMP2 (macrocycle opened); cut site not given
# B2: CMP-167, MMP2 cleaved (ligand)
# chain: B1 chain
# modifications: not fully specified; as CMP-167 but cleavable peptide cut by MMP2 (macrocycle opened); cut site not given
# B3: CMP-168, MMP2 cleaved (ligand)
# chain: APTSSSTKKTQLQLEHLLLDLQEILNGINNYKNPKLTR[Nle]L[hSer][Yn3]KF[Ygp][Nle]PKKATELKHLQCLEEELKPLEEVL[hSer]LAQSKNFHLRPRDLISNINVIVLELKGSETTF[hSer]CEYADETATIVEFLNRWITFSQSIISTLT
# modifications: disulfide 58-105 (inferred); not fully specified (residues 9, 23); also: cleaved by MMP2, bridge opened, remnants on Lys9 and Glu23 not defined
# B4: CMP-165, MMP2 cleaved (ligand)
# chain: APTSSSTKKTQLQLEHLLLDLQKILNGINNYKNPKLTR[Nle]L[hSer][Yn3]KF[Ygp][Nle]PKKATELKHLQCLEEELKPLEEVL[hSer]LAQSKNFHLRPRDLISNINVIVLELKGSETTF[hSer]CEYADETATIVEFLNRWITFSQSIISTLT
# modifications: disulfide 58-105 (inferred); not fully specified (residue 23, N-terminus); also: MMP2 cleaved, ring opened, cut site not given here, peptide remnants on N-terminus (via glutaryl) and on Lys23 side chain
# B5: CMP-145 (ligand)
# chain: APTSSSTKKTQLQLEHLLLDLQKILNGINNYKNPKLTR[Nle]L[hSer][Yn3]KF[Ygp][Nle]PKKATELKHLQCLEEELKPLEEVL[hSer]LAQSKNFHLRPRDLISNINVIVLELKGSETTF[hSer]CEYADETATIVEFLNRWITFSQSIISTLT
# modifications: disulfide 58-105; not fully specified (residue 23); also: branched 27x PEG chains on the attached KKPLGLAG peptide, places not given here
# B6: CMP-131 (ligand)
# chain: APTSSSTKKTQLQLEK([PABC-Cit-Val-Glu-Ac])LLLDLQ[Nle]ILNGINNYKNPKLTR[Nle]L[hSer][Yn3″]KF[Ygp″][Nle]PKKATELKHLQCLEEELKPLEEVL[hSer]LAQSKNFHLRPRDLISNINVIVLELKGSETTF[hSer]CEYADETATIVEFLNRWITFSQSIISTLT
# modifications: not fully specified; ends and bridges not checked
# B7: CMP-130 (ligand)
# chain: APTSSSTKKTQLQLE[Dab]LLLDLQ[Nle]ILNGINNYKNPKLTR[Nle]L[hSer][Yn3(3)]KF[Ygp(3)][Nle]PKKATELKHLQCLEEELKPLEEVL[hSer]LAQSKNFHLRPRDLISNINVIVLELKGSETTF[hSer]CEYADETATIVEFLNRWITFSQSIISTLT
# Biological target: T1, recombinant human IL-2 receptor beta …
# Test: BLI (Octet), receptor on SAX2 sensor, MMP2-treated IL-2 as analyte
# Experimental: (§1) Bilayer interferometry (BLI) assays were used to measure the binding constants between activatable IL-2 polypeptides (and activated versions thereof) to IL-2 receptor subunits or receptor complexes. BLI assays were conducted on an Octet® R8 instrument. Assay plates were 96 well, polypropylene, F-bottom (chimney well), black microplates (Greiner Bio-one, Cat. No: 655209). The biosensors were Octet® SAX2 (Sartorius, Cat. No: 18-5136). The assay buffer was 1× Kinetic Buffer (Sartorius, Cat. no: 18-5136) or Phosphate Buffered Saline (PBS) that contained 0.02% (v: v) Tween 20 (Polysorbate 20) and 0.1% (w/v) bovine serum albumin (BSA). The sensor was regenerated between measurements in 10 mM glycine pH 2.7 buffer.
# (§2) Sensor attached receptors were either recombinant human IL-2 receptor beta containing a His-tag and Avi-Tag™ (R&D Systems™ #AVI10459) or an Avi-Tag™ Fc with human IL-2R beta and IL-2R gamma attached (Acrobiosystems Cat. no: ACRB-ILG-H82F3-25UG). Receptors were reconstituted from lyophilized powder to 500 μg/ml in PBS. Analytes were diluted in Kinetic buffer to 300 nM, then serially diluted to lower concentrations.
Kd [µM],koff [s⁻¹],kon [M⁻¹ s⁻¹],Binder
0.794,0.225,283000,B1
0.658,0.227,345000,B2
1370,1.08,789,B3
1.11,0.237,213000,B4

# Biological target: T2, Avi-Tag Fc with human IL-2R beta and …
# Test: as above
# Experimental: as §1, §2
Kd [µM],koff [s⁻¹],kon [M⁻¹ s⁻¹],Binder
0.00121,0.000684,567000,B1
0.00155,0.000923,594000,B2
0.00227,0.00164,602000,B3
0.00187,0.00114,608000,B4

# Biological target: T2, Avi-Tag Fc with human IL-2R beta and …
# Test: BLI (Octet), receptor on SAX2 sensor, IL-2 as analyte
# Experimental: as §1, §2
row,koff [s⁻¹],Binder
1,0.00117,B5

# Biological target: T3, IL-2 receptor βγ complex on pan T cells
# Test: cell-based or functional assay
row,"Average EC50, pSTAT5 assay in pan T cells, MMP2 cleaved molecule [nM]",Binder
1,4.36,B1
2,5.31,B2
3,6.3,B3
4,1.42,B4

# Biological target: T1, recombinant human IL-2 receptor beta …
# Test: BLI (Octet), receptor on SAX2 sensor, IL-2 as analyte; construct CMP-145
# Experimental: as §1, §2
row,Kd [µM],Binder
1,1.83,B5

# Biological target: T3, IL-2 receptor βγ complex on pan T cells
# Test: cell-based or functional assay
# Remark: another data set of the same source
row,"Average EC50, pSTAT5 assay in pan T cells, intact molecule [nM]",Binder
1,56.9,B6
2,66.8,B7
